According to patent US20060062761A1:

Molecular target: HLA-DR DRB1*0701 on fixed MOU (MANN) cells (human)
Assay: competition

Substance: Tetanus toxin 828-840 (from UniProt P04958 828-840)
- IC50: 7 µM
